{
  "source": "patent US20230310596A1",
  "about": "“DRUG FOR TREATING TUMOR” (priority 2020, published 2023)",
  "molecules": {"B1": {"name": "Cohort II: anti-PD-L1 humanized monoclonal antibody hu5G11-hIgG1, prepared as described in WO2016022630, given as injection (antibody, V domains shown)", "VH": "QITLKESGPTLVKPTQTLTLTCTVSGFSLSTYGVHWIRQPPGKALEWLGVIWRGVTTDYNAAFMSRLTITKDNSKNQVVLTMNNMDPVDTATYYCARLGFYAMDYWGQGTLVTVSS", "VL": "DIQMTQSPSSLSASVGDRVTITCKASQSVSNDVAWYQQKPGKAPKLLIYYAANRYTGVPDRFSGSGYGTDFTFTISSLQPEDIATYFCQQDYTSPYTFGQGTKLEIK", "modifications": "hIgG1 constant regions; VH of hu5G11-hIgG1 and hu5G11-hIgG4; VL of hu5G11-hIgG1 and hu5G11-hIgG4"}},
  "test_system": "MSI-H or dMMR endometrial cancer",
  "type": "in vivo, human",
  "procedure": "Endometrial cancer subjects meeting inclusion criteria were first tested for MMR/MSI status by immunohistochemical or PCR methods, and then grouped according to the MSI-H/dMMR test results; for non-MSI-H/non-dMMR subjects, an anti-PD-L1 antibody and anlotinib hydrochloride (cohort I) were administered, while for MSI-H or dMMR subjects, an anti-PD-L1 antibody (cohort II) was administered, and for patients with disease under control (CR + PR + SD) and tolerable adverse reactions, the administration could be continued until clinical benefits were lost, until the toxicity was intolerable, until PD/iCPD was given by efficacy evaluation, or until the investigator deemed further medication inappropriate. Efficacy evaluations were performed every 6 weeks (42 days) ± 3 days, starting on day 1 of treatment cycle 1, and the efficacy evaluations were performed once every 12 weeks (84 days) ± 3 days after 54 weeks, until the subjects developed disease progression confirmed by oncologic imaging. 1) Histologically or cytologically confirmed unresectable recurrent or metastatic advanced endometrial cancer (previously received 1-2 lines of systemic standard chemotherapy and failed or was intolerant; preliminary neoadjuvant or adjuvant chemotherapy was allowed). 2) It was confirmed that there was at least one measurable lesion according to the Response Evaluation Criteria in Solid Tumors (RECIST 1.1). 3) Age: ≥18 years; ECOG PS scoring: 0-1; an expected survival time of more than 3 months. Anti-PD-L1 antibody injection hu5G11-hIgG1: 1200 mg of the anti-PD-L1 antibody injection (strength: 600 mg/20 mL) was diluted to 250 mL with normal saline, and the infusion time was 60 ± 10 min (from the beginning of the infusion of the anti-PD-L1 antibody injection until the end of the infusion of the anti-PD-L1 antibody injection and the completion of flushing the tube with normal saline (20 mL recommended)). The anti-PD-L1 antibody injection was administered on the first day, and once every 21 days, that is, 21 days were counted as a treatment cycle (d1/q3w). Safety evaluation criteria: the severity of adverse events was determined using the NCI-CTC AE 5.0 criteria. Effectiveness evaluation criteria: disease status was determined using RECIST 1.1, iRECIST criteria. RECIST 1.1 criteria were used as the primary criteria, and iRECIST criteria were used to confirm efficacy. That is, subjects determined to be disease progression (PD) according to RECIST 1.1 criteria were further confirmed according to iRECIST criteria to determine whether to take further medication observation. Primary endpoint: objective response rate (ORR) for IRC evaluation Secondary endpoint: (1) objective response rate (ORR), disease control rate (DCR), duration of response (DOR), progression-free survival (PFS), overall survival (OS), DOR rate (≥ 6 months), and the like evaluated by investigators; (2) the incidence and severity of adverse events (AEs) and serious adverse events (SAEs), and abnormal laboratory test indicators.",
  "key": {"[1]": {"details": "cohort II, after at least 2 cycles of treatment"}, "[2]": {"details": "cohort II, after at least 2 cycles of treatment, listed as anti-PD-L1 antibody"}},
  "note": "Like-named read-outs stand apart in the source and are kept apart here.",
  "data": [
    {"molecule": "B1", "values": [
      {"measurement": "best response CR, number of subjects", "setting": "cohort II, MSI-H or dMMR subjects, after at least 2 cycles of treatment, RECIST 1.1/iRECIST, antibody 1200 mg d1/q3w", "value": "0/6"},
      {"measurement": "DCR, number of subjects", "setting": "[1]", "value": "3/6"},
      {"measurement": "ORR, number of subjects", "setting": "[1]", "value": "⅙"},
      {"measurement": "best response CR, ratio", "setting": "[1]", "value": "(0.00%)"},
      {"measurement": "best response PD, ratio", "setting": "[1]", "value": "(50.00%)"},
      {"measurement": "best response PR (partial response), number of subjects", "setting": "[1]", "value": "⅙"},
      {"measurement": "best response PR, ratio", "setting": "[1]", "value": "(16.67%)"},
      {"measurement": "best response SD (stable disease), number of subjects", "setting": "[1]", "value": "2/6"},
      {"measurement": "best response SD, ratio", "setting": "[1]", "value": "(33.33%)"},
      {"measurement": "disease control rate (DCR)", "setting": "[1]", "value": "(50.00%)"},
      {"measurement": "objective response rate (ORR)", "setting": "[1]", "value": "(16.67%)"},
      {"measurement": "disease control rate (DCR)", "setting": "[2]", "value": 50.00, "unit": "%"},
      {"measurement": "objective response rate (ORR)", "setting": "[2]", "value": 16.67, "unit": "%"},
      {"measurement": "adverse reaction incidence", "setting": "human, in vivo", "value": 67, "unit": "%"},
      {"measurement": "incidence of adverse reactions above grade 3", "setting": "human, in vivo", "value": 16, "unit": "%"}
    ]}
  ]
}
